Test system: [H][C@]12[C@H](OC(=O)c3ccccc3)[C@]3(O)C[C@H](OC(=O)[C@H](O)[C@@H](NC(=O)c4ccccc4)c4ccccc4)C(C)=C([C@@H](O)C(=O)[C@]1(C)[C@@H](O[C@@H]1OC[C@@H](O)[C@H](O)[C@H]1O)C[C@@]1([H])OC[C@@]21OC(C)=O)C3(C)C
Test: HPLC of 10-deacetyltaxol formation, Michaelis-Menten nonlinear fit
Format: biochemical, Lentinula edodes
Details: XDT 0.039–5.0 mmol/L; other conditions as in earlier report
Text: HPLC of 10-deacetyltaxol formation, Michaelis-Menten nonlinear fit on LXYL-P1−1

Row | Substance | Km | Vmax [µM/min] | kcat [s⁻¹] | kcat/Km [M⁻¹ s⁻¹]
1 | LXYL-P1−1 (Lentinula edodes; I368E) | 0.42 (±0.01) mM | 4.02 | 2.41 ± 0.08 | 5740
2 | LXYL-P1−1 (Lentinula edodes) | 0.50 (±0.01) mM | 3.42 | 2.05 ± 0.02 | 4100
3 | LXYL-P1−1 (Lentinula edodes; I368T) | 0.35 (±0.10) mM | 2.6 | 1.56 ± 0.34 | 4460
4 | LXYL-P1−1 (Lentinula edodes; I368E/V91S) | 0.20 (±0.01) mM | 3.43 | 2.06 ± 0.01 | 

Source: publication PMC6337304, “Site-directed Mutagenesis of a β-Glycoside Hydrolase from Lentinula edodes” (Molecules, 2018)
